From patent US20150023971A1

Experiments:
FAKNFV = target: T1, FAKNFV; assay: SPOT length analysis, dot 63, anti-histidine detection
T1 sequence (peptide): FAKNFV

[1] = target: T2, …; assay: SPOT length analysis, dot 35, HRP-S-protein detection
T2 sequence (peptide): DFAKNFVQT

[2] = target: T3, …; assay: SPOT length analysis, dot 24, HRP-S-protein detection
T3 sequence (peptide): FRSSDFAKNF

[3] = target: T4, …; assay: SPOT length analysis, dot 20, HRP-S-protein detection
T4 sequence (peptide): SSDFAKNFVQT

NFVQTD = target: T5, NFVQTD; assay: SPOT length analysis, dot 66, HRP-S-protein detection
T5 sequence (peptide): NFVQTD

DFAKN [4] = target: T6, DFAKN; assay: SPOT length analysis, dot 73, HRP-S-protein detection
T6 sequence (peptide): DFAKN

IFRSS = target: T7, IFRSS; assay: SPOT length analysis, dot 68, anti-histidine detection
T7 sequence (peptide): IFRSS

[5] = target: T8, sortilin peptide … on SPOT membrane; assay: SPOT length analysis, dot 1, HRP-S-protein detection
T8 sequence (peptide, C-terminus anchored to the cellulose membrane through a beta-alanine linker): RIFRSSDFAKNFVQTD

RSSDFA = target: T9, RSSDFA; assay: SPOT length analysis, dot 59, anti-histidine detection
T9 sequence (peptide): RSSDFA

DFAKNFV = target: T10, DFAKNFV; assay: SPOT length analysis, dot 52, anti-histidine detection
T10 sequence (peptide): DFAKNFV

AKNFVQT = target: T11, AKNFVQT; assay: SPOT length analysis, dot 54, HRP-S-protein detection
T11 sequence (peptide): AKNFVQT

[6] = target: T12, …; assay: SPOT length analysis, dot 19, HRP-S-protein detection
T12 sequence (peptide): RSSDFAKNFVQ

RSSDF = target: T13, RSSDF; assay: SPOT length analysis, dot 70, HRP-S-protein detection
T13 sequence (peptide): RSSDF

FRSSDFAK = target: T14, FRSSDFAK; assay: SPOT length analysis, dot 39, HRP-S-protein detection
T14 sequence (peptide): FRSSDFAK

[7] = target: T15, …; assay: SPOT length analysis, dot 25, HRP-S-protein detection
T15 sequence (peptide): RSSDFAKNFV

FVQT = target: T16, FVQT; assay: SPOT length analysis, dot 90, HRP-S-protein detection
T16 sequence (peptide): FVQT

FRSS [8] = target: T17, FRSS; assay: SPOT length analysis, dot 81, HRP-S-protein detection
T17 sequence (peptide): FRSS

[9] = target: T18, …; assay: SPOT length analysis, dot 13, HRP-S-protein detection
T18 sequence (peptide): FRSSDFAKNFVQ

[10] = target: T19, …; assay: SPOT length analysis, dot 26, HRP-S-protein detection
T19 sequence (peptide): SSDFAKNFVQ

AKNFVQ = target: T20, AKNFVQ; assay: SPOT length analysis, dot 64, anti-histidine detection
T20 sequence (peptide): AKNFVQ

FRSS [11] = target: T17, FRSS; assay: SPOT length analysis, dot 81, anti-histidine detection
DFAKN [12] = target: T6, DFAKN; assay: SPOT length analysis, dot 73, anti-histidine detection
NFVQ = target: T21, NFVQ; assay: SPOT length analysis, dot 89, anti-histidine detection
T21 sequence (peptide): NFVQ

[13] = target: T22, …; assay: SPOT length analysis, dot 2, anti-histidine detection
T22 sequence (peptide): RIFRSSDFAKNFVQT

[14] = target: T23, …; assay: SPOT length analysis, dot 33, anti-histidine detection
T23 sequence (peptide): SSDFAKNFV

[15] = target: T24, …; assay: SPOT length analysis, dot 21, HRP-S-protein detection
T24 sequence (peptide): SDFAKNFVQTD

FAKNFVQT = target: T25, FAKNFVQT; assay: SPOT length analysis, dot 44, HRP-S-protein detection
T25 sequence (peptide): FAKNFVQT

[16] = target: T26, …; assay: SPOT length analysis, dot 12, HRP-S-protein detection
T26 sequence (peptide): IFRSSDFAKNFV

FAKNF = target: T27, FAKNF; assay: SPOT length analysis, dot 74, HRP-S-protein detection
T27 sequence (peptide): FAKNF

AKNFV [17] = target: T28, AKNFV; assay: SPOT length analysis, dot 75, anti-histidine detection
T28 sequence (peptide): AKNFV

SDFAK = target: T29, SDFAK; assay: SPOT length analysis, dot 72, anti-histidine detection
T29 sequence (peptide): SDFAK

[18] = target: T30, …; assay: SPOT length analysis, dot 27, anti-histidine detection
T30 sequence (peptide): SDFAKNFVQT

FRSSDFA = target: T31, FRSSDFA; assay: SPOT length analysis, dot 48, anti-histidine detection
T31 sequence (peptide): FRSSDFA

[19] = target: T32, …; assay: SPOT length analysis, dot 34, HRP-S-protein detection
T32 sequence (peptide): SDFAKNFVQ

AKNFV [20] = target: T28, AKNFV; assay: SPOT length analysis, dot 75, HRP-S-protein detection
[21] = target: T15, …; assay: SPOT length analysis, dot 25, anti-histidine detection
RIFRSSD = target: T33, RIFRSSD; assay: SPOT length analysis, dot 46, HRP-S-protein detection
T33 sequence (peptide): RIFRSSD

[22] = target: T8, sortilin peptide … on SPOT membrane; assay: SPOT length analysis, dot 1, anti-histidine detection
[23] = target: T34, …; assay: SPOT length analysis, dot 22, anti-histidine detection
T34 sequence (peptide): RIFRSSDFAK

FRSSDF = target: T35, FRSSDF; assay: SPOT length analysis, dot 58, HRP-S-protein detection
T35 sequence (peptide): FRSSDF

SSDFAKNF = target: T36, SSDFAKNF; assay: SPOT length analysis, dot 41, anti-histidine detection
T36 sequence (peptide): SSDFAKNF

[24] = target: T34, …; assay: SPOT length analysis, dot 22, HRP-S-protein detection
[25] = target: T37, …; assay: SPOT length analysis, dot 5, HRP-S-protein detection
T37 sequence (peptide): IFRSSDFAKNFVQT

VQTD = target: T38, VQTD; assay: SPOT length analysis, dot 91, anti-histidine detection
T38 sequence (peptide): VQTD

[26] = target: T39, …; assay: SPOT length analysis, dot 28, anti-histidine detection
T39 sequence (peptide): DFAKNFVQTD

DFAKNF = target: T40, DFAKNF; assay: SPOT length analysis, dot 62, anti-histidine detection
T40 sequence (peptide): DFAKNF

IFRS = target: T41, IFRS; assay: SPOT length analysis, dot 80, anti-histidine detection
T41 sequence (peptide): IFRS

[27] = target: T30, …; assay: SPOT length analysis, dot 27, HRP-S-protein detection
[28] = target: T42, …; assay: SPOT length analysis, dot 15, HRP-S-protein detection
T42 sequence (peptide): SSDFAKNFVQTD

BLU His (FAKNFV): 142000 BLU
BLU Sprotein [1]: 19500 BLU
BLU Sprotein [2]: 70400 BLU
BLU Sprotein [3]: 18400 BLU
BLU Sprotein (NFVQTD): 14500 BLU
BLU Sprotein (DFAKN [4]): 15600 BLU
BLU His (IFRSS): 25300 BLU
BLU Sprotein [5]: 137000 BLU
BLU His (RSSDFA): 18300 BLU
BLU His (DFAKNFV): 17300 BLU
BLU Sprotein (AKNFVQT): 16700 BLU
BLU Sprotein [6]: 22400 BLU
BLU Sprotein (RSSDF): 15500 BLU
BLU Sprotein (FRSSDFAK): 19200 BLU
BLU Sprotein [7]: 25400 BLU
BLU Sprotein (FVQT): 13600 BLU
BLU Sprotein (FRSS [8]): 37000 BLU
BLU Sprotein [9]: 199000 BLU
BLU Sprotein [10]: 18500 BLU
BLU His (AKNFVQ): 15600 BLU
BLU His (FRSS [11]): 20100 BLU
BLU His (DFAKN [12]): 17800 BLU
BLU His (NFVQ): 14700 BLU
BLU His [13]: 113000 BLU
BLU His [14]: 18900 BLU
BLU Sprotein [15]: 16900 BLU
BLU Sprotein (FAKNFVQT): 23600 BLU
BLU Sprotein [16]: 199000 BLU
BLU Sprotein (FAKNF): 17500 BLU
BLU His (AKNFV [17]): 17500 BLU
BLU His (SDFAK): 15900 BLU
BLU His [18]: 17500 BLU
BLU His (FRSSDFA): 16600 BLU
BLU Sprotein [19]: 18900 BLU
BLU Sprotein (AKNFV [20]): 15900 BLU
BLU His [21]: 23000 BLU
BLU Sprotein (RIFRSSD): 21500 BLU
BLU His [22]: 57000 BLU
BLU His [23]: 45500 BLU
BLU Sprotein (FRSSDF): 16900 BLU
BLU His (SSDFAKNF): 15500 BLU
BLU Sprotein [24]: 60500 BLU
BLU Sprotein [25]: 190000 BLU
BLU His (VQTD): 15100 BLU
BLU His [26]: 17400 BLU
BLU His (DFAKNF): 15200 BLU
BLU His (IFRS): 51100 BLU
BLU Sprotein [27]: 19100 BLU
BLU Sprotein [28]: 22400 BLU
B1: recombinant his-S-tagged pro-domain of human BDNF (residues Ala1-Arg110), from pET-30 Xa/LIC, E. coli (protein, not shown: small tags and cut ends)
chain: APMKEANIRGQGGLAYPGVRTHGTLESVNGPKAGSGLTSLADTFEHVIEELLDEDQKVRPNEENNKDADLYTSRVMLSSQVPLEPPLLFLLEEYKNYLDAANMSMRVRR
